In the Human Domainome abundance scans (Beltran et al. 2025):
± gives the uncertainty stated by the source.

B1: Transcription factor SOX-11, residues 50 to 117; numbered along this chain, P35716 (parent)
chain: KRPMNAFMVWSKIERRKIMEQSPDMHNAEISKRLGKRWKMLKDSEKIPFIREAERLRLKHMADYPDYK

Variants of: B1
Test: abundance fitness (aPCA) (normalised: wild type 0, dead -1); higher = more abundant; growth selection in yeast, the domain comes from the species named
Conditions: Homo sapiens

Row | Variant | abundance fitness
1 | R57L | -0.335 ± 0.065
2 | R57F | -0.432 ± 0.054
3 | R57W | -0.114 ± 0.1
4 | R57V | -0.373 ± 0.066
5 | R57Q | -0.057 ± 0.12
6 | R57K | 0.137 ± 0.11
7 | R57T | -0.023 ± 0.07
8 | R57C | -0.186 ± 0.058
9 | R57E | 0.283 ± 0.13
10 | R57N | 0.414 ± 0.045
11 | R57Y | -0.248 ± 0.056
12 | R57H | -0.126 ± 0.067
13 | R57P | -0.426 ± 0.11
14 | R57D | -0.137 ± 0.073
15 | R57I | -0.384 ± 0.065
16 | R57G | -0.167 ± 0.059
17 | R57A | 0.023 ± 0.063
18 | R57M | -0.068 ± 0.13
19 | D63N | 0.113 ± 0.26
20 | L56Y | -0.386 ± 0.078
21 | L56S | -0.199 ± 0.051
22 | L56P | -1.1 ± 0.22
23 | L56R | -0.532 ± 0.084
24 | L56W | -0.888 ± 0.26

Row | Variant | abundance fitness
25 | L56C | -0.533 ± 0.078
26 | L56V | -0.528 ± 0.063
27 | L56I | -0.176 ± 0.058
28 | L56G | -0.39 ± 0.066
29 | L56M | 0.079 ± 0.16
30 | L56N | -0.347 ± 0.06
31 | L56E | -0.212 ± 0.18
32 | L56Q | -0.26 ± 0.18
33 | L56T | -0.267 ± 0.076
34 | L56D | -0.247 ± 0.069
35 | L56F | -0.377 ± 0.056
36 | L56K | -0.664 ± 0.23
37 | E54T | -0.7 ± 0.12
38 | E54K | -0.826 ± 0.24
39 | E54R | -0.74 ± 0.1
40 | E54P | -0.925 ± 0.16
41 | E54V | -0.671 ± 0.074
42 | E54H | -0.641 ± 0.097
43 | E54L | -0.601 ± 0.083
44 | E54Y | -0.335 ± 0.067
45 | E54I | -0.751 ± 0.091
46 | E54W | -0.576 ± 0.36
47 | E54M | -0.833 ± 0.34
48 | E54F | -0.762 ± 0.085

Row | Variant | abundance fitness
49 | E54Q | -0.364 ± 0.16
50 | E54D | -0.323 ± 0.066
51 | E54A | -0.425 ± 0.072
52 | E54G | -0.714 ± 0.085
53 | E54N | -0.241 ± 0.063
54 | E54C | -0.42 ± 0.089
55 | H60R | -0.227 ± 0.064
56 | H60D | 0.136 ± 0.062
57 | H60G | 0.142 ± 0.055
58 | H60W | -0.607 ± 0.18
59 | H60I | -0.178 ± 0.066
60 | H60T | 0.103 ± 0.074
61 | H60E | 0.406 ± 0.14
62 | H60P | -0.142 ± 0.079
63 | H60V | -0.047 ± 0.061
64 | H60Q | 0.222 ± 0.12
65 | H60S | -0.017 ± 0.05
66 | H60Y | -0.03 ± 0.053
67 | H60C | -0.031 ± 0.06
68 | H60L | -0.273 ± 0.068
69 | H60F | -0.078 ± 0.058
70 | H60N | 0.058 ± 0.055
71 | H60M | -0.114 ± 0.19
72 | P65S | 0.269 ± 0.36

Row | Variant | abundance fitness
73 | P65Y | -0.41 ± 0.37
74 | P65V | -0.013 ± 0.47
75 | P65R | -0.495 ± 0.43
76 | A62G | 0.079 ± 0.05
77 | A62H | -0.251 ± 0.059
78 | A62L | -0.123 ± 0.044
79 | A62S | 0.116 ± 0.039
80 | A62V | -0.139 ± 0.047
81 | A62Y | -0.163 ± 0.043
82 | A62F | -0.2 ± 0.042
83 | A62D | 0.092 ± 0.05
84 | A62I | -0.182 ± 0.046
85 | A62R | -0.225 ± 0.053
86 | A62C | -0.062 ± 0.047
87 | A62Q | 0.146 ± 0.096
88 | A62N | 0.111 ± 0.043
89 | A62K | -0.085 ± 0.08
90 | A62M | -0.181 ± 0.082
91 | A62W | -0.43 ± 0.098
92 | A53T | -0.649 ± 0.11
93 | A53P | -0.478 ± 0.11
94 | A53S | -0.506 ± 0.056
95 | A53Y | -0.813 ± 0.09
96 | A53W | -0.91 ± 0.2

Row | Variant | abundance fitness
97 | A53V | -0.749 ± 0.085
98 | A53R | -0.77 ± 0.087
99 | L58C | -0.116 ± 0.055
100 | L58P | -0.473 ± 0.12
101 | L58T | -0.011 ± 0.071
102 | L58S | -0.047 ± 0.046
103 | L58I | -0.087 ± 0.054
104 | L58D | 0.188 ± 0.056
105 | L58W | -0.222 ± 0.16
106 | L58G | -0.076 ± 0.054
107 | L58N | 0.068 ± 0.054
108 | L58H | 0.065 ± 0.06
109 | L58Y | -0.195 ± 0.055
110 | L58E | -0.294 ± 0.16
111 | L58M | -0.149 ± 0.13
112 | L58R | -0.118 ± 0.069
113 | L58V | -0.101 ± 0.052
114 | M61R | 0.033 ± 0.065
115 | M61K | -0.205 ± 0.18
116 | M61A | 0.144 ± 0.065
117 | M61H | -0.086 ± 0.06
118 | M61Y | -0.096 ± 0.052
119 | M61G | 0.07 ± 0.059
120 | M61N | 0.116 ± 0.053

Row | Variant | abundance fitness
121 | M61I | 0.011 ± 0.048
122 | M61F | -0.292 ± 0.06
123 | M61E | 0.046 ± 0.12
124 | M61C | 0.107 ± 0.05
125 | M61Q | 0.077 ± 0.11
126 | M61D | 0.09 ± 0.059
127 | M61W | -0.221 ± 0.16
128 | M61T | 0.058 ± 0.06
129 | M61P | 0.008 ± 0.078
130 | M61S | 0.047 ± 0.048
131 | M61V | 0.048 ± 0.057
132 | K59V | 0.012 ± 0.051
133 | K59A | 0.087 ± 0.062
134 | K59C | -0.099 ± 0.055
135 | K59L | 0.12 ± 0.053
136 | K59S | -0.017 ± 0.044
137 | K59E | 0.084 ± 0.16
138 | K59P | -0.403 ± 0.089
139 | K59H | 0.106 ± 0.06
140 | K59W | -0.323 ± 0.15
141 | K59F | -0.166 ± 0.054
142 | K59T | 0.075 ± 0.069
143 | K59N | 0.026 ± 0.053
144 | K59M | 0.039 ± 0.089

Row | Variant | abundance fitness
145 | K59Y | -0.192 ± 0.056
146 | K59D | -0.052 ± 0.061
147 | K59I | -0.054 ± 0.054
148 | R55V | -0.343 ± 0.063
149 | R55F | -0.356 ± 0.071
150 | R55W | -0.277 ± 0.19
151 | R55H | -0.213 ± 0.06
152 | R55E | -0.017 ± 0.14
153 | R55D | -0.119 ± 0.058
154 | R55S | -0.146 ± 0.049
155 | R55C | -0.416 ± 0.057
156 | R55N | -0.087 ± 0.055
157 | R55P | -0.868 ± 0.19
158 | R55G | -0.313 ± 0.055
159 | R55M | -0.521 ± 0.15
160 | R55I | -0.246 ± 0.067
161 | R55Y | -0.43 ± 0.061
162 | R55K | -0.177 ± 0.15
163 | D66C | -0.278 ± 0.13
164 | D66F | -0.265 ± 0.11
165 | D66E | 0.247 ± 0.18
166 | D66G | -0.027 ± 0.12
167 | D66A | -0.206 ± 0.14
